Binding result and Kd data for 4 molecules are collected here from PMC8510090, “The DNA Recognition Motif of GapR Has an Intrinsic DNA Binding Preference towards AT-rich DNA” (Molecules, 2021).

Data set [1] concerns the target T1, GapRΔC17 (Caulobacter crescentus, UniProt B8H4R9 1-72).
T1 sequence: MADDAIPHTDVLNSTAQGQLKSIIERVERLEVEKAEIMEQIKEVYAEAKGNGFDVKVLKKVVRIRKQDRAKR
Kind of data set: NMR titration (1H-15N HSQC); MST: 20 mM PBS, 150 mM NaCl, 0.02% n-dodecyl-β-D-maltoside, pH 7, 20 nM labeled dimer (labeling at room temperature); NMR netropsin competition: 50 mM sodium phosphate, 150 mM NaCl, pH 7.0, 90% H2O/5% D2O (so in the source). As to conditions: protein: recombinant; tags: C-terminal His6; chain copies: 2.

For data set [2], the target named is T1, GapRΔC17. Description: MST; MST: 20 mM PBS, 150 mM NaCl, 0.02% n-dodecyl-β-D-maltoside, pH 7, 20 nM labeled dimer (labeling at room temperature); NMR netropsin competition: 50 mM sodium phosphate, 150 mM NaCl, pH 7.0, 90% H2O/5% D2O (so in the source). As to conditions: protein: recombinant, tags: C-terminal His6, chain copies: 2.
Data set [3] concerns the molecule itself. Kind of data set: crystal structure; hanging drop vapor diffusion at room temperature; protein 10 mg/mL in 50 mM HEPES pH 7.0, 300 mM NaCl; 0.1 M sodium cacodylate pH 6.0, 15% PEG4000; 2.08 angstrom.

B1: 3AT DNA (dsDNA)
DNA 1: CGCATATATGCG
DNA 2: CGCATATATGCG
B1: the binding result with GapRΔC17 [1] is on record as “binds”.

B2: 6CG DNA (dsDNA)
DNA 1: CGCGCGCGCGCG
DNA 2: CGCGCGCGCGCG
For orientation: Kd means the free concentration of one partner at which half of the binding sites on the other are occupied at equilibrium, for simple one-to-one binding. Turning to B2, in the data set with GapRΔC17 [2], the equilibrium dissociation constant (Kd) stood at 18 ± 2 µM.

B3: 6A DNA (dsDNA)
DNA 1: CGCAAAAAAGCG
DNA 2: CGCTTTTTTGCG
As for B3, in the data set with GapRΔC17 [2] (blunt), the equilibrium dissociation constant (Kd) was 1.1 ± 0.1 µM.

B4: GapR^ΔC17 (DNA binding domain of GapR, residues 1–72) (domain or fragment, Caulobacter crescentus, UniProt B8H4R9 1-72, looked up)
chain: T1 sequence
notes: GapR, nucleoid-associated protein of Caulobacter crescentus, gene gapr (CCNA_03428), residues 1-72 (the C-terminal 17 residues, most of helix α3, deleted); 8.2 kDa; Cloned into the NdeI and XhoI sites of pET-21a(+) and followed by a C-terminal His6-tag; A selenomethionyl derivative was used for phasing; also called DNA recognition motif of GapR; dimer unit of GapR; source: E. coli Rosetta (DE3), …
In the case of B4, the binding result in data set [3] is recorded as “binds”.
